Paper PMC3537504

Legend:
[1] = molecular target: GST-βII-spectrin-1-4 (GST fusion of repeats 1-4 of βII-spectrin) (rat); assay: SPR
[2] = molecular target: MBP-αII-cardi+ (MBP fusion of repeats 18-21 of αII-spectrin with the 21-amino acid cardi+ insert) (rat); assay: far-Western, overlay or dot blot

Kd [1] [pM] | fold lower binding (response units at saturation) than MBP-αII-cardi− [1] [fold] | binding relative to the αII-cardi− protein (blot overlay, densitometry) [2] [fold] | Substance
1090 | 2 | – | MBP-αII-cardi+ (MBP fusion of repeats 18-21 of αII-spectrin with the 21-amino acid cardi+ insert) (domain or fragment)
570 | – | – | MBP-αII-cardi− (MBP fusion of repeats 18-21 of αII-spectrin without the cardi+ insert) (domain or fragment)
– | – | 0.5 | GST-βII-spectrin-1-4 (GST fusion of repeats 1-4 of βII-spectrin) (domain or fragment)
